# Results as given in article PMC12561182, “Gal3‐CaN‐Smurf1 Complex Sequestrates FLCN‐FNIPs to Facilitate TFEB Activation in Response to Endomembrane Damage” (Advanced Science, 2025).
# B1: GST-FLCN (natural protein, UniProt Q8NFG4 1-579, looked up)
# chain: MNAIVALCHFCELHGPRTLFCTEVLHAPLPQGDGNEDSPGQGEQAEEEEGGIQMNSRMRAHSPAEGASVESSSPGPKKSDMCEGCRSLAAGHPGYISHDKETSIKYVSHQHPSHPQLFSIVRQACVRSLSCEVCPGREGPIFFGDEQHGFVFSHTFFIKDSLARGFQRWYSIITIMMDRIYLINSWPFLLGKVRGIIDELQGKALKVFEAEQFGCPQRAQRMNTAFTPFLHQRNGNAARSLTSLTSDDNLWACLHTSFAWLLKACGSRLTEKLLEGAPTEDTLVQMEKLADLEEESESWDNSEAEEEEKAPVLPESTEGRELTQGPAESSSLSGCGSWQPRKLPVFKSLRHMRQVLGAPSFRMLAWHVLMGNQVIWKSRDVDLVQSAFEVLRTMLPVGCVRIIPYSSQYEEAYRCNFLGLSPHVQIPPHVLSSEFAVIVEVHAAARSTLHPVGCEDDQSLSKYEFVVTSGSPVAADRVGPTILNKIEAALTNQNLSVDVVDQCLVCLKEEWMNKVKVLFKFTKVDSRPKEDTQKLLSILGASEEDNVKLLKFWMTGLSKTYKSHLMSTVRSPTASESRN
# notes: FLCN, folliculin; source: E. coli, purified
# B2: GST-TFEB (natural protein, UniProt P19484 1-476, looked up)
# chain: MASRIGLRMQLMREQAQQEEQRERMQQQAVMHYMQQQQQQQQQQLGGPPTPAINTPVHFQSPPPVPGEVLKVQSYLENPTSYHLQQSQHQKVREYLSETYGNKFAAHISPAQGSPKPPPAASPGVRAGHVLSSSAGNSAPNSPMAMLHIGSNPERELDDVIDNIMRLDDVLGYINPEMQMPNTLPLSSSHLNVYSSDPQVTASLVGVTSSSCPADLTQKRELTDAESRALAKERQKKDNHNLIERRRRFNINDRIKELGMLIPKANDLDVRWNKGTILKASVDYIRRMQKDLQKSRELENHSRRLEMTNKQLWLRIQELEMQARVHGLPTTSPSGMNMAELAQQVVKQELPSEEGPGEALMLGAEVPDPEPLPALPPQAPLPLPTQPPSPFHHLDFSHSLSFGGREDEGPPGYPEPLAPGHGSPFPSLSKKDLDLMLLDDSLLPLASDPLLSTMSPEASKASSRRSSFSMEEGDVL
# notes: TFEB, transcription factor EB; source: E. coli, purified
# Molecular target: T1, His-Flag-Smurf1 (UniProt Q9HCE7-2 1-731)
# T1 construct: Smurf1; printed length 731 (HECT domain residues 374–731, catalytic C699); also called SMAD Specific E3 Ubiquitin Protein Ligase 1; source: E. coli, purified
# T1 sequence (Q9HCE7 other isoform, or with tags, fused parts or gaps): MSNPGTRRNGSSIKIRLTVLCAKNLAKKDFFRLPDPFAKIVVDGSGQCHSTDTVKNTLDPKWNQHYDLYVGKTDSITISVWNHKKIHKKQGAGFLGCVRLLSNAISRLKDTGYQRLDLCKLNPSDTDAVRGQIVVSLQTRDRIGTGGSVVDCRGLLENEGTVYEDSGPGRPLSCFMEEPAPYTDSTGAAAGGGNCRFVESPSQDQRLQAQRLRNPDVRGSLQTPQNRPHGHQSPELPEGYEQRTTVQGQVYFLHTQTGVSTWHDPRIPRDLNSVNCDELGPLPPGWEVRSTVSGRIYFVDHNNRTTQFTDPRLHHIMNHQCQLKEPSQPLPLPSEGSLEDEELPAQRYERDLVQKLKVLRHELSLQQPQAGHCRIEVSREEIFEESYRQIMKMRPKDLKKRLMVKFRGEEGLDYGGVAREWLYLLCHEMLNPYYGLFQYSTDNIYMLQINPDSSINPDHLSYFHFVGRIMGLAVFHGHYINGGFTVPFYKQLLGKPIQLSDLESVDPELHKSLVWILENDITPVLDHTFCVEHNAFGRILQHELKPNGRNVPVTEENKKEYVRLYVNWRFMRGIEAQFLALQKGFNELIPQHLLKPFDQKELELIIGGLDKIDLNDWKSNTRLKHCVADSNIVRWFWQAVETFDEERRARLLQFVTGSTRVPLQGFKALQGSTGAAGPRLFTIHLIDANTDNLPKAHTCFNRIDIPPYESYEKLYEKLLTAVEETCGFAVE
# Assay: pull-down; GST pull-down: GST fusion and His-tagged partner both purified from E. coli; 4 °C overnight, washed with PBS
# Details: both partners purified
binder,measurement,value
B1,binding result,binds
B2,binding result,binds
